# Reference: patent US12365732
# Experiments:
# [1] = target: human CD96 on primary human immune cells (PBMCs, NK cells, CD4+ T cells) (human) (UniProt P40200); assay: FACS, Ab 16 nM
# [2] = target: cynomolgus monkey CD96 on cynomolgus monkey PBMCs (cynomolgus monkey); assay: FACS, Ab 16 nM
# [3] = target: human CD96 on primary human immune cells (PBMCs, NK cells, CD4+ T cells) (human) (UniProt P40200); assay: FACS, % positive curve
# [4] = target: cynomolgus monkey CD96 on cynomolgus monkey PBMCs (cynomolgus monkey); assay: FACS, % positive curve
# [5] = target: hu-CD96 isoform 2 on CHO cells (human) (UniProt P40200); assay: FACS, % positive curve
# [6] = target: hu-CD96 isoform 2 on CHO cells (human) (UniProt P40200); assay: FACS, CD155-Fc-FLAG 10 nM, Ab 4 nM
# [7] = target: hu-CD96 isoform 2 on CHO cells (human) (UniProt P40200); assay: FACS, CD155-Fc-FLAG 10 nM, Ab 100 nM
# [8] = target: hu-CD96 isoform 2 on CHO cells (human) (UniProt P40200); assay: FACS, Ab 0.4 nM
# hu-CD96D1 D3-hFc (human) = assay: ELISA, coated CD96D1D3-hFc
# Sequence of hu-CD96D1 D3-hFc (human) (chain, as listed by the source limits assumed): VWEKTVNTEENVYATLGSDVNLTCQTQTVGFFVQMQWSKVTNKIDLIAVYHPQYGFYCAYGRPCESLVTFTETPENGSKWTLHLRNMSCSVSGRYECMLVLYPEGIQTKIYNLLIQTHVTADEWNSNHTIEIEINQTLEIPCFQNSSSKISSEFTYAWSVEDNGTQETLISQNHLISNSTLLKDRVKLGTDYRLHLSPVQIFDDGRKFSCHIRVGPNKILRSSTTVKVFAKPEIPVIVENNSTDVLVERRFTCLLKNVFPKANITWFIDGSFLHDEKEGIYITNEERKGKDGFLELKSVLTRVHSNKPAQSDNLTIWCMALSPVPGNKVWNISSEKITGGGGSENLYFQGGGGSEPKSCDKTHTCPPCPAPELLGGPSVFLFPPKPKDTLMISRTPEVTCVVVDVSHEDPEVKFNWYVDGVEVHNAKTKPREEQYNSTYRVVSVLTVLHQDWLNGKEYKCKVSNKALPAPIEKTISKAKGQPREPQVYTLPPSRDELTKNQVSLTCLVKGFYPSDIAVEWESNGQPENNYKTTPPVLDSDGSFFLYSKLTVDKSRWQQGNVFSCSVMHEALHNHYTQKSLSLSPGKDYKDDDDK
# [9] = target: hu-CD96 isoform 2 on CHO cells (human) (UniProt P40200); assay: FACS, blocks 10 nM CD155-Fc-FLAG binding to CD96-CHO
# [10] = target: hu-CD96 isoform 2 on CHO cells (human) (UniProt P40200); assay: FACS, CD155-Fc-FLAG 10 nM, Ab 0.0064 nM
# [11] = target: human CD96 on primary human immune cells (PBMCs, NK cells, CD4+ T cells) (human) (UniProt P40200); assay: FACS, Ab 0.64 nM
# [12] = target: cynomolgus monkey CD96 on cynomolgus monkey PBMCs (cynomolgus monkey); assay: FACS, Ab 0.64 nM
# [13] = target: hu-CD96 isoform 2 on CHO cells (human) (UniProt P40200); assay: FACS, Ab 0.08 nM
# [14] = target: hu-CD96 isoform 2 on CHO cells (human) (UniProt P40200); assay: FACS, CD155-Fc-FLAG 10 nM, Ab 0.8 nM
# [15] = target: human CD96 on primary human immune cells (PBMCs, NK cells, CD4+ T cells) (human) (UniProt P40200); assay: cell-based or functional assay
# hu-CD96 Fc (human) = assay: SPR 37C, biotin-CD96-Fc captured, IgG analyte
# Sequence of hu-CD96 Fc (human) (chain, as listed by the source): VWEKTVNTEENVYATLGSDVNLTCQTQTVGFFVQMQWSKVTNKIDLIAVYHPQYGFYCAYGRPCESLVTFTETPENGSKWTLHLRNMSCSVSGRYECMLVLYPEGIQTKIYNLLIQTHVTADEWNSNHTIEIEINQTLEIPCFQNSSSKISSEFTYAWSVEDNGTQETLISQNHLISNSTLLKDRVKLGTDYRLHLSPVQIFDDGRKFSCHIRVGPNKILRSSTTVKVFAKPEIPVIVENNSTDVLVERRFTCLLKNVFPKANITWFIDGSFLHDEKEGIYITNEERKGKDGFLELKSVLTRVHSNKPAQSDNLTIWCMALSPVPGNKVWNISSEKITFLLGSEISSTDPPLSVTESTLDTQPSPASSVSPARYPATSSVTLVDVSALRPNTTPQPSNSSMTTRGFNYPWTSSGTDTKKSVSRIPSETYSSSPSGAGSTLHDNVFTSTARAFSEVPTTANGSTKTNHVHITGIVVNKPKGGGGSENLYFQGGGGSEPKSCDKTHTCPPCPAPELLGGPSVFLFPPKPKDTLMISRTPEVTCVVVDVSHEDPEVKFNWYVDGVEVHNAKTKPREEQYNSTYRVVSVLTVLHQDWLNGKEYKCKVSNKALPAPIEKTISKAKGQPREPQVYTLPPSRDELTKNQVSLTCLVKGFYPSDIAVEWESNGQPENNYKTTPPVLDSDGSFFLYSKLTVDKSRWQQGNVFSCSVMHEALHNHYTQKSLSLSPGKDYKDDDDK
# [16] = target: human CD96 on primary human immune cells (PBMCs, NK cells, CD4+ T cells) (human) (UniProt P40200); assay: FACS, Ab 0.128 nM
# [17] = target: cynomolgus monkey CD96 on cynomolgus monkey PBMCs (cynomolgus monkey); assay: FACS, Ab 0.128 nM
# [18] = target: hu-CD96 isoform 2 on CHO cells (human) (UniProt P40200); assay: FACS, CD155-Fc-FLAG 10 nM, Ab 0.032 nM
# [19] = target: hu-CD96 isoform 2 on CHO cells (human) (UniProt P40200); assay: FACS, CD155-Fc-FLAG 10 nM, Ab 20 nM
# [20] = target: hu-CD96 isoform 2 on CHO cells (human) (UniProt P40200); assay: FACS, CD155-Fc-FLAG 10 nM, Ab 0.16 nM
# [21] = target: hu-CD96 isoform 2 on CHO cells (human) (UniProt P40200); assay: FACS, Ab 0.016 nM
# [22] = target: human CD96 on primary human immune cells (PBMCs, NK cells, CD4+ T cells) (human) (UniProt P40200); assay: FACS, Ab 80 nM
# [23] = target: cynomolgus monkey CD96 on cynomolgus monkey PBMCs (cynomolgus monkey); assay: FACS, Ab 80 nM
# [24] = target: recombinant hu-CD96 (M1-M503-polyHis) (human) (UniProt P40200); assay: ELISA, blocks hu-CD96-his binding to coated CD155-hFc
# [25] = target: hu-CD96 isoform 2 on CHO cells (human) (UniProt P40200); assay: FACS, Ab 50 nM
# [26] = target: hu-CD96 isoform 2 on CHO cells (human) (UniProt P40200); assay: FACS, Ab 10 nM
# [27] = target: hu-CD96 (soluble, isoform 2 extracellular domain) (human) (UniProt P40200); assay: SPR 25C, IgG captured, CD96 analyte
# [28] = target: human CD96 on primary human immune cells (PBMCs, NK cells, CD4+ T cells) (human) (UniProt P40200); assay: FACS, Ab 0.00512 nM
# [29] = target: cynomolgus monkey CD96 on cynomolgus monkey PBMCs (cynomolgus monkey); assay: FACS, Ab 0.00512 nM
# [30] = target: human CD96 on primary human immune cells (PBMCs, NK cells, CD4+ T cells) (human) (UniProt P40200); assay: FACS, Ab 3.2 nM
# [31] = target: cynomolgus monkey CD96 on cynomolgus monkey PBMCs (cynomolgus monkey); assay: FACS, Ab 3.2 nM
# [32] = target: hu-CD96 isoform 2 on CHO cells (human) (UniProt P40200); assay: FACS, Ab 2 nM
# [33] = target: human CD96 on primary human immune cells (PBMCs, NK cells, CD4+ T cells) (human) (UniProt P40200); assay: FACS, Ab 0.0256 nM
# [34] = target: cynomolgus monkey CD96 on cynomolgus monkey PBMCs (cynomolgus monkey); assay: FACS, Ab 0.0256 nM
# [35] = target: hu-CD96 isoform 2 on CHO cells (human) (UniProt P40200); assay: FACS, Ab 0.0032 nM
# hu-CD226 His tag (human) = hu-CD226 His tag (human) (UniProt Q15762); assay: SPR 25C, biotin-CD226-His captured, IgG analyte
# Sequence of hu-CD226 His tag (human) (Q15762 19-247 limits assumed): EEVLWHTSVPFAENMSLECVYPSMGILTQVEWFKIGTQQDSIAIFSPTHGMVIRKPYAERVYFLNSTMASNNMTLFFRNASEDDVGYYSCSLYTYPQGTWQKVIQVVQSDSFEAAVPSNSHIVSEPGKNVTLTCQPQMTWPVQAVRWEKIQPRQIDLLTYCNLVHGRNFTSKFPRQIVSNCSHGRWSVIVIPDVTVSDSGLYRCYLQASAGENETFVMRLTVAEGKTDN
# [36] = target: cy-CD226 His tag (cynomolgus monkey); assay: SPR 25C, biotin-CD226-His captured, IgG analyte
# Sequence of cy-CD226 His tag (cynomolgus monkey) (chain, as listed by the source): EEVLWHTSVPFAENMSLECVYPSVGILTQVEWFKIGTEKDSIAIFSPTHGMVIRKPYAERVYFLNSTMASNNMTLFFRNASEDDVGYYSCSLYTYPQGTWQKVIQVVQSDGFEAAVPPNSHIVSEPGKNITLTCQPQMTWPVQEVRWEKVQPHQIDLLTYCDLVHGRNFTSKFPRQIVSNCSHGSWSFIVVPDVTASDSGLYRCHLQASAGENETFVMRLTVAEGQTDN
# [37] = target: hu-CD96 isoform 1 on HEK293T cells (human) (UniProt P40200); assay: FACS, Ab 0.4 nM
# [38] = target: hu-CD96 isoform 1 on HEK293T cells (human) (UniProt P40200); assay: FACS, Ab 0.08 nM
# [39] = target: hu-CD96 isoform 1 on HEK293T cells (human) (UniProt P40200); assay: FACS, Ab 0.016 nM
# [40] = target: hu-CD96 isoform 1 on HEK293T cells (human) (UniProt P40200); assay: FACS, Ab 50 nM
# [41] = target: hu-CD96 isoform 1 on HEK293T cells (human) (UniProt P40200); assay: FACS, Ab 10 nM
# [42] = target: hu-CD96 isoform 1 on HEK293T cells (human) (UniProt P40200); assay: FACS, Ab 2 nM
substance,measurement,setting,value
NK92.39 (antibody),% positive,[1],94.3%
same,% positive,[2],5.4%
same,EC50,[3],1.22 nM
same,EC50,[4],1.1 nM
same,EC50,[5],1.15 nM
same,CD155-Fc binding (MedFI),[6],5040 MedFI
same,CD155-Fc binding (MedFI),[7],5050 MedFI
same,% positive,[8],4%
same,EC50,hu-CD96D1 D3-hFc (human),0.98 nM
same,IC50,[9],0.91 nM
same,CD155-Fc binding (MedFI),[10],64100 MedFI
same,% positive,[11],27.4%
same,% positive,[12],4.7%
same,% positive,[13],0.2%
same,CD155-Fc binding (MedFI),[14],40300 MedFI
same,"Human NK cell IFNγ secretion (fold over background), Ab 0.08 nM",[15],1.38 fold
same,"Human NK cell IFNγ secretion (fold over background), Ab 0.4 nM",[15],0.69 fold
same,"Human NK cell IFNγ secretion (fold over background), Ab 2 nM",[15],1.27 fold
same,"Human NK cell IFNγ secretion (fold over background), Ab 10 nM",[15],1.39 fold
same,"Human NK cell IFNγ secretion (fold over background), Ab 50 nM",[15],1.68 fold
same,"Human NK cell IFNγ secretion (fold over background), Ab 250 nM",[15],1.62 fold
same,"Human NK cell IFNγ secretion, EC50",[15],5.53 nM
same,"Human NK cell IFNγ secretion, maximal efficacy relative to h10G1",[15],61%
same,Kd,hu-CD96 Fc (human),14.2 nM
same,koff,hu-CD96 Fc (human),0.0012 s⁻¹
same,kon,hu-CD96 Fc (human),84400 M⁻¹ s⁻¹
same,% positive,[16],2%
same,% positive,[17],5.2%
same,CD155-Fc binding (MedFI),[18],69300 MedFI
same,CD155-Fc binding (MedFI),[19],5040 MedFI
same,CD155-Fc binding (MedFI),[20],62600 MedFI
same,% positive,[21],0.1%
same,% positive,[22],91.9%
same,% positive,[23],4.9%
same,IC50,[24],2.57 nM
same,% positive,[25],22%
same,% positive,[26],21.5%
same,Kd,[27],14.3 nM
same,% positive,[28],1.3%
same,% positive,[29],4.5%
same,% positive,[30],76.7%
same,% positive,[31],5.2%
same,% positive,[32],15.8%
same,% positive,[33],0.9%
same,% positive,[34],5%
same,% positive,[35],0.1%
anti-hCD226 antibody DX11,Kd,hu-CD226 His tag (human),6.9 nM
same,Kd,[36],0.02 nM
hu-IgG1 control antibody,% positive,[1],4.61%
same,% positive,[2],0.64%
same,CD155-Fc binding (MedFI),[6],63100 MedFI
same,CD155-Fc binding (MedFI),[7],51700 MedFI
same,CD155-Fc binding (MedFI),[10],47700 MedFI
same,% positive,[11],4.04%
same,% positive,[12],0.59%
same,CD155-Fc binding (MedFI),[14],58300 MedFI
same,% positive,[16],3.98%
same,% positive,[17],0.31%
same,CD155-Fc binding (MedFI),[18],52800 MedFI
same,CD155-Fc binding (MedFI),[19],57300 MedFI
same,CD155-Fc binding (MedFI),[20],59400 MedFI
same,% positive,[22],3.1%
same,% positive,[23],2.36%
same,% positive,[28],5.29%
same,% positive,[29],0.41%
same,% positive,[30],4.67%
same,% positive,[31],1.15%
same,% positive,[33],5.5%
same,% positive,[34],0.57%
muIgG1 control antibody,% positive,[1],2.05%
same,% positive,[2],1.77%
same,CD155-Fc binding (MedFI),[6],71600 MedFI
same,CD155-Fc binding (MedFI),[7],76000 MedFI
same,% positive,[37],0.49%
same,% positive,[8],0.14%
same,CD155-Fc binding (MedFI),[10],64300 MedFI
same,% positive,[11],1.5%
same,% positive,[12],1.07%
same,% positive,[38],0.41%
same,% positive,[13],0.11%
same,CD155-Fc binding (MedFI),[14],66600 MedFI
same,% positive,[16],1.09%
same,% positive,[17],0.83%
same,CD155-Fc binding (MedFI),[18],65400 MedFI
same,CD155-Fc binding (MedFI),[19],71600 MedFI
same,CD155-Fc binding (MedFI),[20],64400 MedFI
same,% positive,[39],0.41%
same,% positive,[21],0.06%
same,% positive,[22],2.34%
same,% positive,[23],1.9%
same,% positive,[40],0.75%
same,% positive,[25],0.42%
same,% positive,[41],0.48%
same,% positive,[26],0.18%
same,% positive,[28],0.98%
same,% positive,[29],0.76%
same,% positive,[30],1.42%
same,% positive,[31],0.95%
same,% positive,[42],0.49%
same,% positive,[32],0.27%
same,% positive,[33],1.48%
same,% positive,[34],1%
same,% positive,[35],0.03%
